Experimental data: publication PMC3538841

Molecular target: HA ectodomain of B/Florida/4/2006 (influenza B virus B/Florida/4/2006 (Yamagata lineage))
Test: negative stain EM reconstruction

HA ectodomain of B/Florida/4/2006 (domain or fragment)
stoichiometry N: 3
